Numbering of substitutions follows the chain as printed. Names may count otherwise.
Assays:
[1] = system: Arabidopsis thaliana PPC1 (AtPPC1, C3 PEPC); test: malate dehydrogenase coupled PEPC enzymatic assay, Arabidopsis C3 PPC1 and engineered variants; assay type: biochemical; conditions: for Km: 0-7.5 mM phosphoenolpyruvate, read-out: Km PEP; for Km / Vmax: 25° C, HEPES pH7.5
From the text: (§1) For both Arabidopsis C3 PPC1 (AtPPC1) and maize C4 PPC1 (ZmPPC1), the entire coding sequence for each was cloned into pET22b, which contains an amino-terminal 6×-HIS tag for protein purification, and expression was driven by the T7 promoter and lac operon. Relevant mutations were introduced by the Stratagene QuikChange mutagenesis kit using PCR amplification. Both wild type and mutant cDNA constructs were sequenced entirely following cloning into pet22b. Proteins were produced by growing transformed E. coli (BL21 CodonPlus) in autoinduction medium at 18° C. for 16 hours. Proteins were isolated by sonication of bacterial cells followed by passage over a nickel sepharose affinity column, elution with imidazole and separation on a GE SUPERDEX HILOAD 200 PG 16/60 all using an AKTA FPLC.
(§2) Enzyme analysis was conducted in vitro using protein that was generated by expression in E. coli using the pET22b vector. For expression, pET22b constructs were transformed into E. coli BL21-DE3 codon plus RIL cells and grown at 37° C. in autoinduction media until reaching an OD=1 after which these were transferred to 18° C. for 18 hours. Samples were collected and lysed by sonication. Protein was purified by passage through a His-trap nickel affinity column on an Akta FPLC and then eluted with 400 mM imidazole. Partially purified protein was then separated on an FPLC equipped with a HiPrep S200 size exclusion column (16/60) after which collected sample was concentrated by centrifugation to a final concentration of 4 mg/ml in 50% glycerol. Samples were stored at −20° C.
(§3) For enzymatic assays, a malate dehydrogenase coupled reaction was conducted with a range of substrate concentrations (0-7.5 mM phosphoenolpyruvate pyruvate) and a range of concentrations of allosteric inhibitor (0-50 mM malate). Assays were monitored using a Victor2 microplate reader at 25° C. Reactions consisted of […] PPC enzyme variants, 50 mM HEPES pH7.5, 10 mM MgCl2, 10 mM KHCO3 (carbonate substrate), 0.2 mM NADH, and 10 units/ml of malate dehydrogenase. Reaction time was 15 minutes and samples were measured on an ˜40 second interval. For measurement, which monitors loss of NADH, excitation wavelength was 340 nM and emission wavelength was 460 nM. From these assays, the enzyme kinetics of Tables 4-1 and 4-2 were determined for each enzyme variant.

[2] = system: transgenic Arabidopsis seedlings; test: root growth analysis of transgenic Arabidopsis in the presence of aluminum; assay type: in vivo, Arabidopsis thaliana; conditions: day 7, 20° C, soaked gel, aluminum toxicity equivalent to about 50-100 μM; versus plants expressing wt AtPPC1
Experimental: Root growth was examined in transgenic Arabidopsis engineered to express wt AtPPC1, or a variant PEPC (G678S AtPPC1 or R886G AtPPC1) in a genotypic background devoid of expression of native AtPPC1. Seedlings from the transgenic Arabidopsis strains were grown at 20° C. in a soaked gel environment with aluminum toxicity equivalent to about 50-100 μM in the absence of agar. Root growth was assessed at day 7. […] This is consistent with the improved enzyme kinetics of the G678S AtPPC1 or R886G AtPPC1 enzymes described in Example 5.

[3] = system: Zea mays PPC1 (ZmPPC1, C4 PEPC); test: malate dehydrogenase coupled PEPC enzymatic assay, maize C4 PPC1 and engineered variants; assay type: biochemical; conditions: for Km: 0-7.5 mM phosphoenolpyruvate, read-out: Km PEP; for Km / Vmax: 25° C, HEPES pH7.5; for effect of malate on enzyme: at 50 mM malate
From the text: as §1, §2
as §3, with “nM.” for “nM. From these assays, the enzyme kinetics of Tables 4-1 and 4-2 were determined for each enzyme variant.”

[4] = target: T1, Zea mays PPC1 (ZmPPC1, C4 PEPC) (Zea mays, UniProt P04711, A655V); test: as above; assay type: biochemical; conditions: Kcat/Km
T1 construct: 6xHis (N); made in house; host or cells: E. coli BL21 CodonPlus (pET22b)
T1 sequence (P04711 whole entry A655V): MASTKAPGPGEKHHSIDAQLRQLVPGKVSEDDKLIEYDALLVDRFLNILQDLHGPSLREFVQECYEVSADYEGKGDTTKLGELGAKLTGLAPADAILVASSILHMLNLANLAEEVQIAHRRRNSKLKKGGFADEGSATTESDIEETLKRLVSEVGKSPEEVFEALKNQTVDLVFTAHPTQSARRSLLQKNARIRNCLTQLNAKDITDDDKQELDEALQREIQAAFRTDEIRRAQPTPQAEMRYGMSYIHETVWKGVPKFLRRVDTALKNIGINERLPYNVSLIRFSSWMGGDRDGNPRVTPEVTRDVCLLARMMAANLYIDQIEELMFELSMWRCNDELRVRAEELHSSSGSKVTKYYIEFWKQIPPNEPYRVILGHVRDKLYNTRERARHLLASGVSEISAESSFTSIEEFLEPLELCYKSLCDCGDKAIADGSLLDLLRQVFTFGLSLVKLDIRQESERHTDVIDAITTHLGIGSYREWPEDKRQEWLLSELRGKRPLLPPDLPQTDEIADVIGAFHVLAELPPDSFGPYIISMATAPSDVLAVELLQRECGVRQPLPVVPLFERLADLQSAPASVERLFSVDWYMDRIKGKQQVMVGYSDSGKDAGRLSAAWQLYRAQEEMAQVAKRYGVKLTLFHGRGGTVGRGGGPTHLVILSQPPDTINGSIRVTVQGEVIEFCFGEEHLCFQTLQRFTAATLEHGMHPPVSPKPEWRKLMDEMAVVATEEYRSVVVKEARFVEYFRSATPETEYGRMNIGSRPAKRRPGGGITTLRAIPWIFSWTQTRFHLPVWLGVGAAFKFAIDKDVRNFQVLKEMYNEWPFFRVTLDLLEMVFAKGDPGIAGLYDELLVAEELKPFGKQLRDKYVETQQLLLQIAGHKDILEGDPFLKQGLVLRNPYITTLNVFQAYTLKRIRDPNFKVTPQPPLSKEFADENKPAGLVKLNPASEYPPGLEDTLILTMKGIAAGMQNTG
From the text: as §1, §2
as §3, with “nM.” for “nM. From these assays, the enzyme kinetics of Tables 4-1 and 4-2 were determined for each enzyme variant.”

B1: AtPPC1 G678S: engineered Arabidopsis thaliana PPC1 with G678S substitution (alr-128), SEQ ID NO:11 (protein)
chain: MANRKLEKMASIDVHLRQLVPGKVSEDDKLVEYDALLLDRFLDILQDLHGEDLRETVQELYEHSAEYEGKHEPKKLEELGSVLTSLDPGDSIVIAKAFSHMLNLANLAEEVQIAYRRRIKKLKKGDFVDESSATTESDLEETFKKLVGDLNKSPEEIFDALKNQTVDLVLTAHPTQSVRRSLLQKHGRIRDCLAQLYAKDITPDDKQELDEALQREIQAAFRTDEIKRTPPTPQDEMRAGMSYFHETIWKGVPKFLRRVDTALKNIGIEERVPYNAPLIQFSSWMGGDRDGNPRVTPEVTRDVCLLARMMAATMYFNQIEDLMFEMSMWRCNDELRARADEVHANSRKDAAKHYIEFWKSIPTTEPYRVILGDVRDKLYHTRERAHQLLSNGHSDVPVEATFINLEQFLEPLELCYRSLCSCGDRPIADGSLLDFLRQVSTFGLSLVRLDIRQESDRHTDVLDAITTHLDIGSYREWSEERRQEWLLSELSGKRPLFGSDLPKTEEIADVLDTFHVIAELPADSFGAYIISMATAPSDVLAVELLQRECRVKQPLRVVPLFEKLADLEAAPAAVARLFSVDWYKNRINGKQEVMIGYSDSGKDAGRLSAAWQLYKAQEELVKVAKEYGVKLTMFHGRGGTVGRGGGPTHLAILSQPPDTINGSLRVTVQGEVIEQSFSEEHLCFRTLQRFTAATLEHGMRPPISPKPEWRALLDEMAVVATEEYRSVVFQEPRFVEYFRLATPELEYGRMNIGSRPSKRKPSGGIESLRAIPWIFAWTQTRFHLPVWLGFGSAIRHVIEKDVRNLHMLQDMYQHWPFFRVTIDLIEMVFAKGDPGIAALYDKLLVSEELWPFGEKLRANFEETKKLILQTAGHKDLLEGDPYLKQRLRLRDSYITTLNVCQAYTLKRIRDPSYHVTLRPHISKEIAESSKPAKELIELNPTSEYAPGLEDTLILTMKGIAAGLQNTG
Km [1]: 433 ± 40 µM | Vmax [1]: 17.784 ± 0.44 units/mg | increase in catalytic efficiency over wt AtPPC1 ([1]; Kcat/Km relative to wt AtPPC1): ~5 fold | reduction in Km ([1]; compared with wt AtPPC1): 85% | root growth in the presence of aluminum [2]: large increase

B2: AtPPC1 R886G: engineered Arabidopsis thaliana PPC1 enzyme with R886G substitution (protein, UniProt Q9MAH0 1-967, looked up, variant R886G)
Phosphoenolpyruvate …: B1 chain with S678G, R886G
Km [1]: 1110 ± 36 µM | Vmax [1]: 12.586 ± 0.14 units/mg | root growth in the presence of aluminum [2]: large increase

B3: AtPPC1 A651V: engineered Arabidopsis thaliana PPC1 with A651V substitution (alr-108), SEQ ID NO:10 (protein)
chain: B1 chain with A651V, S678G
Km [1]: 956 ± 40 µM | Vmax [1]: 15.776 ± 0.25 units/mg

B4: AtPPC1 T778I: engineered Arabidopsis thaliana PPC1 with T778I substitution (alr-139), SEQ ID NO:12 (protein)
chain: B1 chain with S678G, T778I
Km [1]: 1090 ± 27 µM | Vmax [1]: 14.738 ± 0.15 units/mg

B5: AtPPC1 wild type: wild type Arabidopsis thaliana PPC1, C3 PEPC, SEQ ID NO:1 (protein)
chain: B1 chain with S678G
Km [1]: 2740 ± 166 µM | Vmax [1]: 24.992 ± 0.69 units/mg

B6: ZmPPC1 A651V: engineered Zea mays PPC1 with A651V substitution (A655V in SEQ ID NO:15) (protein)
chain: MASTKAPGPGEKHHSIDAQLRQLVPGKVSEDDKLIEYDALLVDRFLNILQDLHGPSLREFVQECYEVSADYEGKGDTTKLGELGAKLTGLAPADAILVASSILHMLNLANLAEEVQIAHRRRNSKLKKGGFADEGSATTESDIEETLKRLVSEVGKSPEEVFEALKNQTVDLVFTAHPTQSARRSLLQKNARIRNCLTQLNAKDITDDDKQELDEALQREIQAAFRTDEIRRAQPTPQDEMRYGMSYIHETVWKGVPKFLRRVDTALKNIGINERLPYNVSLIRFSSWMGGDRDGNPRVTPEVTRDVCLLARMMAANLYIDQIEELMFELSMWRCNDELRVRAEELHSSSGSKVTKYYIEFWKQIPPNEPYRVILGHVRDKLYNTRERARHLLASGVSEISAESSFTSIEEFLEPLELCYKSLCDCGDKAIADGSLLDLLRQVFTFGLSLVKLDIRQESERHTDVIDAITTHLGIGSYREWPEDKRQEWLLSELRGKRPLLPPDLPQTDEIADVIGAFHVLAELPPDSFGPYIISMATAPSDVLAVELLQRECGVRQPLPVVPLFERLADLQSAPASVERLFSVDWYMDRIKGKQQVMVGYSDSGKDAGRLSAAWQLYRAQEEMAQVAKRYGVKLTLFHGRGGTVGRGGGPTHLVILSQPPDTINGSIRVTVQGEVIEFCFGEEHLCFQTLQRFTAATLEHGMHPPVSPKPEWRKLMDEMAVVATEEYRSVVVKEARFVEYFRSATPETEYGRMNIGSRPAKRRPGGGITTLRAIPWIFSWTQTRFHLPVWLGVGAAFKFAIDKDVRNFQVLKEMYNEWPFFRVTLDLLEMVFAKGDPGIAGLYDELLVAEELKPFGKQLRDKYVETQQLLLQIAGHKDILEGDPFLKQGLVLRNPYITTLNVFQAYTLKRIRDPNFKVTPQPPLSKEFADENKPAGLVKLNPASEYPPGLEDTLILTMKGIAAGMQNTG
effects of the allosteric inhibitor malate relative to wt ZmPPC1 [3]: greatly reduce | Km [3]: 477 ± 42 µM | Vmax [3]: 12.84 ± 0.89 units/mg | effect of malate on enzyme [3]: wholly unaffected | activity of C4 PEPC ([3]; substitution introduced into maize C4 PEPC (ZmPPC1)): increased activity | increase in catalytic efficiency relative to wt ZmPPC1 [4]: > 7 fold

B7: ZmPPC1 wild type: wild type Zea mays PPC1, C4 PEPC, SEQ ID NO:15 (protein)
chain: B6 chain with V655A
Km [3]: 4620 ± 406 µM | Vmax [3]: 17.56 ± 2.35 units/mg | effect of malate on enzyme [3]: completely inhibited
